This note sets out measurements from the supplement of paper PMC7877785.

± gives the uncertainty stated by the source.

The nature of the data set: self-splicing fitness, log relative to wild type (ln ratio); higher = more splicing; Tetrahymena group I intron in knt gene, E. coli kanamycin selection, DiMSum; sequences stand for … in CUCUCU…GGAGGGAAAAGUUAUCAGGCAUGCACCUGGUAGCUAGUCUUUAAACCAAUAGAUUGCAUCGGUUUAAAAGGCAAGACCGUCAAAUUGCGGGAAAGGGGUCAACAGCCGUUCAGUACCAAGUCUCAGGGGAAACUUUGAGAUGGCCUUGCAAAGGGUAUGGUAAUAAGCUGACGGACAUGGUCCUAACCACGCAGCCAAGUCCUAAGUCAACAGAUCUUCUGUUGAUAUGGAUGCAGUUCACAGACUAAAUGUCGGUCGGGGAAGAUGUAUUCUUCUCAUAAGAUAUAGUCGGACCUCUCCUUAAUGGGAGCUAGCGGAUGAAGUGAUGCAACACUGGAGCCGCUGGGAACUAAUUUGUAUGCGAAAGUAUAUUGAUUAGUUUUGGAGUACUCGUGGUCG
In outline: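 Six replicate transformations of E. coli BL21(DE3) with a pET-22b(+) library were grown overnight at 37°C or 30°C. The library randomised all eight P1ex-region intron nucleotides, the intron lying in the knt kanamycin-resistance gene, and plates were LB agar with or without 25 μg/mL kanamycin plus 100 μg/mL carbenicillin, 50 μM IPTG and 0.2% rhamnose. Pooled colonies were amplicon-sequenced on an Illumina HiSeq 2500, and fitness is the DiMSum error-weighted combination of wild-type-normalised replicate fold changes, kanamycin versus none.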

For UGUUAGCAAUAUUACGAACA, the “self-splicing fitness (ln)” value was -1.08 ± 0.2 (30 °C) and -1.15 ± 0.32 (37 °C).
Taken in the same sequence, the figures for AGCAAGCAAUAUUACGCUGU were -2.69 ± 0.12 and -0.265 ± 0.12.
With AUGUAGCAAUAUUACGCCCU, the “self-splicing fitness (ln)” value (30 °C) stood at 0.267 ± 0.097 and the “self-splicing fitness (ln)” value (37 °C) was found to be 0.0833 ± 0.098.
Take GGCGAGCAAUAUUACGUCGC: the “self-splicing fitness (ln)” value (30 °C) was -2.72 ± 0.23.
In the case of CAGCAGCAAUAUUACGAAAG, the “self-splicing fitness (ln)” value (30 °C) was -0.597 ± 0.09 and the “self-splicing fitness (ln)” value (37 °C) is -0.18 ± 0.12.
Take UCCGAGCAAUAUUACGCAUC: the “self-splicing fitness (ln)” value (30 °C) is -3.11 ± 0.41.
As for GUGGAGCAAUAUUACGCACA, the “self-splicing fitness (ln)” value (30 °C) was -0.729 ± 0.22 and the “self-splicing fitness (ln)” value (37 °C) is -0.814 ± 0.33.
For the sequence GGGCAGCAAUAUUACGUGAA, the “self-splicing fitness (ln)” value (30 °C) was -0.864 ± 0.079 and the “self-splicing fitness (ln)” value (37 °C) is -0.507 ± 0.083.
On to AAUUAGCAAUAUUACGCGCC, for which the “self-splicing fitness (ln)” value runs as follows: (30 °C) -0.89 ± 0.23; (37 °C) -0.821 ± 0.34.
Taken in the same sequence, the figures for CCUUAGCAAUAUUACGGCUA were -2.52 ± 0.45 and -1.75 ± 0.37.
For ACUAAGCAAUAUUACGUUAC, in that order: -3.81 ± 0.2 and -3.08 ± 0.3.
Taken in the same sequence, the figures for CGCGAGCAAUAUUACGCAAU were -4.68 ± 0.36 and -2.83 ± 0.29.
With UCAGAGCAAUAUUACGGUCC, for the setting “30 °C”, the “self-splicing fitness (ln)” value is -2.18 ± 0.24.
Take AUUGAGCAAUAUUACGGAAC: the “self-splicing fitness (ln)” value (30 °C) was -3.09 ± 0.23.
For the sequence AUAAAGCAAUAUUACGAAUG, the “self-splicing fitness (ln)” value was -1.48 ± 0.1 (30 °C) and -0.422 ± 0.12 (37 °C).
For AUUAAGCAAUAUUACGUCAA, in that order: -2.1 ± 0.22 and -0.766 ± 0.16.
Consider CACGAGCAAUAUUACGACGG, for which the “self-splicing fitness (ln)” value is -1.6 ± 0.13 (30 °C) and -0.392 ± 0.14 (37 °C).
For CUGUAGCAAUAUUACGGUAG, in that order: -2.9 ± 0.21 and -1.98 ± 0.25.
For AUGAAGCAAUAUUACGUGUA, in that order: -1.75 ± 0.082 and -0.686 ± 0.093.
Taken in the same sequence, the figures for AUCAAGCAAUAUUACGAUCC were -2.34 ± 0.2 and -0.539 ± 0.21.
In the case of GUCUAGCAAUAUUACGAUUA, the “self-splicing fitness (ln)” value reads like this: (30 °C) -0.177 ± 0.17; (37 °C) 0.177 ± 0.12.
For GGCCAGCAAUAUUACGGAAA, in that order: -1.27 ± 0.11 and -0.606 ± 0.13.
Consider CAGUAGCAAUAUUACGCGAC, for which the “self-splicing fitness (ln)” value (37 °C) is -1 ± 0.32.
Regarding CACUAGCAAUAUUACGCUAA, the “self-splicing fitness (ln)” value by setting is: (30 °C) -3.33 ± 0.3; (37 °C) -1.75 ± 0.19.
For GGAAAGCAAUAUUACGAUAG, in that order: -3.1 ± 0.34 and -1.16 ± 0.2.
Taken in the same sequence, the figures for AGUGAGCAAUAUUACGCCCA were -3.28 ± 0.46 and -2.42 ± 0.37.
Turning to UCAGAGCAAUAUUACGGGAU, the “self-splicing fitness (ln)” value runs as follows: (30 °C) -3.39 ± 0.47; (37 °C) -2.58 ± 0.48.
As for UCUAAGCAAUAUUACGGAUA, the “self-splicing fitness (ln)” value runs as follows: (30 °C) -2.97 ± 0.22; (37 °C) -1.77 ± 0.19.
For CCUAAGCAAUAUUACGUGCA, in that order: -3.34 ± 0.18 and -1.91 ± 0.17.
Taken in the same sequence, the figures for UCACAGCAAUAUUACGUAAG were -1.98 ± 0.083 and -1.33 ± 0.1.
For GAACAGCAAUAUUACGUAGA, in that order: -0.427 ± 0.049 and -0.162 ± 0.069.
Regarding CCCGAGCAAUAUUACGCAAC, the “self-splicing fitness (ln)” value (37 °C) was -2.23 ± 0.34.
With GUGAAGCAAUAUUACGAGUU, the “self-splicing fitness (ln)” value by setting is: (30 °C) -2.5 ± 0.12; (37 °C) -1.14 ± 0.15.
For UCUGAGCAAUAUUACGUUCU, in that order: -3.98 ± 0.3 and -2.89 ± 0.31.
For CUGCAGCAAUAUUACGAAAU, in that order: -3.51 ± 0.37 and -1.62 ± 0.18.
In the case of GACUAGCAAUAUUACGUUCA, the “self-splicing fitness (ln)” value (30 °C) was -0.661 ± 0.11 and the “self-splicing fitness (ln)” value (37 °C) is -0.533 ± 0.12.
Taken in the same sequence, the figures for GCGCAGCAAUAUUACGUUUA were -1.01 ± 0.1 and -0.423 ± 0.1.
For AUUCAGCAAUAUUACGAAAU, in that order: -1 ± 0.091 and -0.557 ± 0.1.
For GUGAAGCAAUAUUACGAUCG, in that order: -0.499 ± 0.097 and 0.218 ± 0.1.
For the sequence CCAUAGCAAUAUUACGCGUA, the “self-splicing fitness (ln)” value reads like this: (30 °C) -3.19 ± 0.4; (37 °C) -2.75 ± 0.41.
